The supplement of paper PMC9170038

Tested on: MS2 coat protein
Test: apparent KD of MS2 coat protein; designed switch direction (-1 OFF switch, 1 ON switch): 1; higher = weaker reporter binding
How it was run: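 The buffer was Tris-HCl pH 7.5 with KCl, MgCl2, BSA, DTT, tRNA and Tween-20. In it, SNAP-549-labelled MS2 coat protein was titrated in doubling steps from 0.7 or 1.5 nM to 3 µM over chip-bound RNA switches transcribed by stalled E. coli RNA polymerase on Illumina chips. Apparent KD is the per-design median over clusters of curve fits to normalised fluorescence.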

[1] = Eterna round: R95, input ligand: FMN 200 uM
[2] = Eterna round: R95, input ligand: microRNA oligo, concentration not stated
[3] = Eterna round: R95, input ligand: none
[4] = input ligand: microRNA oligo, concentration not stated

“GGUUUAGUCAAGUGCCGUUGCACUUGAAAACAUGAGGAUCACCCAUGUUUGGGACAAGCUUUGCUCCUCGUCUUUCC [Tiatmaraen] (puzzle: Sensor for hsa-mir-208a)” was tested, and the “apparent KD of MS2 coat protein” value [1] was 477 nM, the “apparent KD of MS2 coat protein” value [2] was 66.3 nM and the “apparent KD of MS2 coat protein” value [3] was 591 nM.

With “GGUUUAGUCAGGCACAAUUGCGCCUGAAAACAUGAGGAUCACCCAUGUUUGGGACAAGCUUUGCUCCUCGUCUUGCA [Enzati] (puzzle: Sensor for hsa-mir-208a)” the “apparent KD of MS2 coat protein” value [1] was 306 nM, the “apparent KD of MS2 coat protein” value [2] was 68.1 nM and the “apparent KD of MS2 coat protein” value [3] was 385 nM.

“GUAAAACAUGAGGAUCACCCAUGUCAACAAAGUCGAGGAUAUGGGCAAAUAAAAUAAGAACCAGAAGGCGAAUAAG [salish99_SS1_r3_009] (Eterna round: R96, puzzle: Same State 1)” was tested, and the “apparent KD of MS2 coat protein” value (input ligand: FMN 200 uM) was 45.9 nM, the “apparent KD of MS2 coat protein” value [4] was 125 nM and the “apparent KD of MS2 coat protein” value (input ligand: none) was 235 nM.

“GUAAAACAUGAGGAUCACCCAUGUCAACAAAGUCGAGGAUAUGGGCAAAUAAAAUAAGAACCAGAAGGCGAAUAAG [salish99_SS1_r3_009] (puzzle: Same State 1)” was tested, and the “apparent KD of MS2 coat protein” value [1] was 44 nM, the “apparent KD of MS2 coat protein” value [2] was 703 nM and the “apparent KD of MS2 coat protein” value [3] was 1290 nM.

In the case of “GUAGAUAUAGAGGAGGAUAUUCGAUGAGGAACAUGAGGAUCACCCAUGUAAGAGAGAGAUGAUGAGAAGAAGGCUUAGAGGGAUG [Altered State 2-4 - Jieux - Same State 2] (puzzle: Same State 2)”, the “apparent KD of MS2 coat protein” value [1] is reported as 25.1 nM, the “apparent KD of MS2 coat protein” value [2] is reported as 35.8 nM and the “apparent KD of MS2 coat protein” value [3] is reported as 36.4 nM.

“GUAGCAUACCGAGGAUAUUCAUAAAAUAAAUAAACAUGAGGAUCACCCAUGUGGCGAAAGCCUUGGGAGAAGGCGGAAUGCUAC [Xeonanis - 20 Mod73] (Eterna round: R96, puzzle: Same State NG 2)” was tested, and the “apparent KD of MS2 coat protein” value (input ligand: FMN 200 uM) was 20 nM, the “apparent KD of MS2 coat protein” value [4] was 370 nM and the “apparent KD of MS2 coat protein” value (input ligand: none) was 359 nM.

In the case of “GUAGCAUACCGAGGAUAUUCAUAUAAUACAUGAGGAUCACCCAUGUUAAAUAGGCGAAAGCCUUGGGAGAAGGCGGAAUGCUAC [Xeonanis - 20 Mod66] (Eterna round: R96, puzzle: Same State NG 2)”, the “apparent KD of MS2 coat protein” value (input ligand: FMN 200 uM) is reported as 10.5 nM, the “apparent KD of MS2 coat protein” value [4] is reported as 13 nM and the “apparent KD of MS2 coat protein” value (input ligand: none) is reported as 17.1 nM.

With “GUAGCAUACCGAGGAUAUUCAUAUAAUAUUACAUGAGGAUCACCCAUGUAUAGGCGAAAGCCUUGGGAGAAGGCGGAAUGCUAC [Xeonanis - 20 Mod61] (Eterna round: R96, puzzle: Same State NG 2)” the “apparent KD of MS2 coat protein” value (input ligand: FMN 200 uM) was 13.2 nM, the “apparent KD of MS2 coat protein” value [4] was 24.9 nM and the “apparent KD of MS2 coat protein” value (input ligand: none) was 28.6 nM.

For “GUAGCAUACCGAGGAUAUUCAUAUACAUGAGGAUCACCCAUGUUAAAUAAUAGGCGAAAGCCUUGGGAGAAGGCGGAAUGCUAC [Xeonanis - 20 Mod70] (Eterna round: R96, puzzle: Same State NG 2)”, the “apparent KD of MS2 coat protein” value (input ligand: FMN 200 uM) was 10.3 nM, the “apparent KD of MS2 coat protein” value [4] was 9.72 nM and the “apparent KD of MS2 coat protein” value (input ligand: none) was 12.6 nM.

“GUAGCAUACCGAGGAUAUUCAUAUUACAUGAGGAUCACCCAUGUUAUAUAGGCCAAAAGGCCUUGGGAGAAGGCGGAAUGCUAC [Xeonanis - 20 Mod9] (Eterna round: R96, puzzle: Same State NG 2)” was tested, and the “apparent KD of MS2 coat protein” value (input ligand: FMN 200 uM) was 10.3 nM, the “apparent KD of MS2 coat protein” value [4] was 9.73 nM and the “apparent KD of MS2 coat protein” value (input ligand: none) was 14.7 nM.

“GUAGCAUACCGAGGAUAUUCAUUACAUGAGGAUCACCCAUGUUUAUUAUAGGCCAAAAGGCCUUGGGAGAAGGCGGAAUGCUAC [Xeonanis - 20 Mod12] (Eterna round: R96, puzzle: Same State NG 2)” was tested, and the “apparent KD of MS2 coat protein” value (input ligand: FMN 200 uM) was 8.36 nM, the “apparent KD of MS2 coat protein” value [4] was 8.47 nM and the “apparent KD of MS2 coat protein” value (input ligand: none) was 10.7 nM.

“GUAUAACAUGAGGAUCACCCAUGUCAACAAAGUCGAGGAUAUGGGCAUAUAAUAUAUGAACCAGAAGGCGAAUAUG [Mat - Same State 1 - Mod of UCT - D36] (puzzle: Same State 1)” was tested, and the “apparent KD of MS2 coat protein” value [1] was 34.2 nM, the “apparent KD of MS2 coat protein” value [2] was 37.9 nM and the “apparent KD of MS2 coat protein” value [3] was 56.7 nM.

“GUAUAACAUGAGGAUCACCCAUGUCAUCUAAGUCGAGGAUAUGGGCAAAUAUAAUAAGAACCAGAAGGCGAAUAUG [Mat - Same State 1 - Mod of UCT - D34] (puzzle: Same State 1)” was tested, and the “apparent KD of MS2 coat protein” value [1] was 57.8 nM, the “apparent KD of MS2 coat protein” value [2] was 111 nM and the “apparent KD of MS2 coat protein” value [3] was 119 nM.

With “GUAUCUACAGGUUGCAAUGCUCGUCGGAUACAUGAGGAUCACCCAUGUUAUAGCCCUGUGCUUGCGCAGGGCUGAUU [Sensor for hsa-mir-208a ( MOD of Tearor )] (puzzle: Sensor for hsa-mir-208a)” the “apparent KD of MS2 coat protein” value [1] was 46.8 nM, the “apparent KD of MS2 coat protein” value [2] was 39.4 nM and the “apparent KD of MS2 coat protein” value [3] was 49.5 nM.

With “GUCGGCCUGUCGUGCUGAGGUGAUAGUUAACAUGAGGAUCACCCAUGUUGCUGUCGGGUCGUUGGGAGUUUUCUUCG [Modxample 117 - Jieux - Sensor for bsa-mir-208a] (Eterna round: R96, puzzle: Sensor for hsa-mir-208a)” the “apparent KD of MS2 coat protein” value (input ligand: FMN 200 uM) was 71.2 nM, the “apparent KD of MS2 coat protein” value [4] was 50.8 nM and the “apparent KD of MS2 coat protein” value (input ligand: none) was 62.4 nM.
